Experimental data reported in patent US20080124340A1 (published 2008).

T1: mouse EpoR-Fc protein (muEpoR-Fc) (mouse, UniProt P14753 25-249)
T1 construct: Biotinylated in the assay; also called biotinylated muEpoR-Fc; not shown: Fc part not described
T1 sequence (looked up): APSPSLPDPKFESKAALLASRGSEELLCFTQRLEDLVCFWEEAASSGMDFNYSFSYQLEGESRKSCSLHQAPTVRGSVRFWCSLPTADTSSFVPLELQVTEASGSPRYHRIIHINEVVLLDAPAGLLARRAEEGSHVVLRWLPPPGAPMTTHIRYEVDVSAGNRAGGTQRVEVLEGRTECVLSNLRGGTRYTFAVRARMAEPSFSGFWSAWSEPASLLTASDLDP

B1: clone 10 IgG2 protein (antibody, V domains shown)
VH: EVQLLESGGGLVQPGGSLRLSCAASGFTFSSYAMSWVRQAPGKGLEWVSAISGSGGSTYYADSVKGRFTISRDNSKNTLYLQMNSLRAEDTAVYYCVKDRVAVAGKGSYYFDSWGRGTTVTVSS
VL: QSVLTQPPSVSEAPGQRVTIACSGSSSNIGNNAVSWYQQLPGKAPTLLIYYDNLLPSGVSDRFSGSKSGTSASLAISGLQSEDEADYYCAAWDDSLNDWVFGGGTKVTVL
notes: Human IgG2; also called IgG2 10
B2: clone 2 IgG2 protein (antibody, V domains shown)
VH: EVQLVQSGGGLVQPGGSLRLSCAASGFTFSSYWMSWVRQAPGKGLEWVANIKPDGSEKYYVDSVKGRFTISRDNAKNSVYLQMNSLRAEDTAVYYCARVSRGGSYSDWGQGTLVTVSS
VL: QSVLTQPPSASGSPGQSVTISCTGTSSDVGGYNYVSWYQQHPGKAPKLMIYEVSKRPSGVPDRFSGSKSGNTASLTVSGLQPEDEADYYCSSYAGRNWVFGGGTQLTVL
notes: Human IgG2 (vector pVE414NhuIgG2); light chain constant type matches the variable light chain isotype; also called IgG2 2; IgG22
B3: clone 5 IgG2 protein (antibody, V domains shown)
VH: EVQLVESGGGLVQPGGSLRLSCAASGFTFSSYWMSWVRQAPGKGLEWVANIKPDGSEKYYVDSVKGRFTISRDNAKNSVYLQMNSLRAEDTAVYYCARVSRGGSYSDWGQGTLVTVSS
VL: QSALTQPASVSGSPGQSITISCTGTSSDVGGYIYVSWYQQHPGKAPKLMIYDVSRRPSGISDRFSGSKSGNTASLTISGLQAEDEADYYCNSYTTLSTWLFGGGTKVTVL
notes: Human IgG2; also called IgG2 5; IgG25
B4: clone 7 IgG2 protein (antibody, V domains shown)
VH: EVQLVQSGGGLVQPGGSLRLSCAASGFTFSSYWMSWVRQAPGKGLEWVANIKPDGSEKYYVDSVKGRFTISRDNAKNSVYLQMNSLRAEDTAVYYCARVSRGGSYSDWGKGTLVTVSS
VL: QSALTQPASVSGSPGQSIIISCTGTRSDIGGYNYVSWYQHHPGRAPKLIIFDVNNRPSGVSHRFSGSKSGNTASLTISGLQAEDEADYYCNSFTDSRTWLFGGGTKLTVL
notes: Human IgG2; also called IgG2 7
B5: clone 30 IgG2 protein (antibody, V domains shown)
VH: QVQLQESGPGLVKPSQTLSLTCAISGDSVSSNSAAWNWIRQSPSRGLEWLGRTYYRSKWYNDYAVSVKSRMTIKADTSKNQFSLQLNSVTPEDTAVYYCARDEGPLDYWGQGTLVTVSA
VL: QAVLTQPSSVSGAPGQRVTISCTGSSSNLGTGYDVHWYQQLPGTAPKLLIYGNSNRPSGVPDRFSGSKSDTSGLLAITGLQAEDEATYYCQSYDFSLSAMVFGGGTKVTVL
notes: Human IgG2; also called IgG2 30

The binders below were run against T1, mouse EpoR-Fc protein (muEpoR-Fc) (assay: ELISA: antibody coated at 1 µg/ml, biotinylated muEpoR-Fc at 5 µg/ml, streptavidin-HRP, ABTS).

Binding result, binds:
B1
B2
B3
B4
B5
